Experimental data taken from the supplement of paper PMC12764529.
± gives the half width of the 95% confidence interval.

Tests used:
[1] = folding stability dG unfold from trypsin proteolysis; higher = more stable
Outline: (§1)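 K50 was inferred by Bayesian fitting of sequencing counts obtained after protease digestion of designed mini-proteins. Unfolding free energy was derived by comparison with a sequence-predicted unfolded-state K50 and a shared folded-state K50, for each protease or both combined. The mini-proteins were under 80 residues, had no cysteine, were carried in a PA-tagged cDNA display construct, and were kept only if AlphaFold2 dimer inter-PAE exceeded 15.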

[2] = folding stability dG unfold from chymotrypsin proteolysis; higher = more stable
Outline: as §1

[3] = folding stability dG unfold (combined trypsin and chymotrypsin); higher = more stable
Outline: as §1

Row | Sequence | folding stability dG unfold [1] | folding stability dG unfold [2] | folding stability dG unfold [3]
1 | SGNGEVEVEINIRIVIEPWDPNGEPDPVPIAEIPIKAEYDANDPEAVDFAVLDILDLLAPENPGYRIHIESA [r9_1112_TrROS] | 1.11 ± 0.067 kcal/mol | 0.379 ± 0.047 kcal/mol | 0.731 ± 0.062 kcal/mol
2 | SGPGEEEVAKRAAAEAAPTPDVREVTEEVEIVVPGTGEKVVVPVTALRLPDGTIVPLPEEEIRAIAEKLLSA [r9_1056_JUSTAS] | 0.341 ± 0.098 kcal/mol | 1.07 ± 0.058 kcal/mol | 0.771 ± 0.13 kcal/mol
3 | SGPTSITFPDGSSASISLSPDSFTITITLPGSSATSTYDPATGTTTITLTFSSSTVTLTLDPATGTLTVGSA [r9_207_JUSTAS] | 3.86 ± 0.11 kcal/mol | 5.01 ± 0.083 kcal/mol | 4.89 ± 0.11 kcal/mol
4 | SGSFKLLKVEEHPDNPSITAVLTFPDGSTATLRFRPDGSWTGYVESTGKPFTAVSGENELKLFVPEELTLSA [r9_233_TrMRF] | 0.67 ± 0.059 kcal/mol | 0.319 ± 0.14 kcal/mol | 0.523 ± 0.095 kcal/mol
5 | SGSSLLSETTEFVELPDDTFATVSTSTYYIPGSGEIVTKTTVTIYPPTGPPVTTTYTSTTTPEGVLVTESSA [r9_856_JUSTAS] | 2.38 ± 0.13 kcal/mol | 3.59 ± 0.15 kcal/mol | 3.31 ± 0.2 kcal/mol
6 | SGSTHTVRPPGGLTLTFTFSTDGTTEEAAQALKEALAAALPPDVTVTFDRIDPDKPVTPDEAATVDATVVSA [r9_178_JUSTAS] | 0.482 ± 0.055 kcal/mol | 1.69 ± 0.11 kcal/mol | 1.21 ± 0.17 kcal/mol
7 | SGVSVKVTVEGNTITIEVSADAKIKIEVTFPTKKATYEVEVEPGKPVTFTIPLPKDVPKDAFIDKIDIGGSA [r9_1152_TrMRF] | 1.98 ± 0.11 kcal/mol | 3.56 ± 0.12 kcal/mol | 3.03 ± 0.17 kcal/mol
8 | SIEEIADTLQKLGLNVNIDDIELEPNPDGRFRIQVQVSGEPIRQVEVPPPPPPPPEEEVRDPDGKEHKVRSA [r9_442_TrROS] | -0.188 ± 0.086 kcal/mol | -0.281 ± 0.26 kcal/mol | -0.404 ± 0.33 kcal/mol
9 | SIEIYEGPEEAEEMAEENGTPVIPIPPDMNLSEILKQLKNQPGLPPDQKIVIVIQWEPGQWYVIRIPIKPSA [r9_314_TrROS] | 2.05 ± 0.059 kcal/mol | 2.734 ± 0.022 kcal/mol | 2.53 ± 0.091 kcal/mol
10 | SIIRSPNGYWIVITVKVPEGAKPFPPGFEVQRDPEKGTLTIIMPMPPDDIRRLAEHPGVEIEKIEFIPWDSA [r9_827_TrROS] | 1.14 ± 0.032 kcal/mol | 2.05 ± 0.021 kcal/mol | 1.74 ± 0.069 kcal/mol
11 | SIITINFHPGMFHISIYKDGGEKTIPMPWSEIKELLKKGVDKVEIHSPDPGFMNEFQKLVQKEGIPIEIHSA [r9_810_TrROS] | 1.42 ± 0.095 kcal/mol | 2.12 ± 0.06 kcal/mol | 1.9 ± 0.25 kcal/mol
12 | SIKIEPHPDGFFMLRFPDNGHKIMIRVDPEKGKVKIMFETPGQPVEQEIDPDEGTITIEFPNNKIEIPIKSA [r9_541_TrROS] | 2.42 ± 0.1 kcal/mol | 1.14 ± 0.24 kcal/mol | 1.56 ± 0.23 kcal/mol
13 | SIKIRKEKTPNGYYEITFEFPFPDGWPMTIEANVQVDPENGKVKVDIKIEDPNLPPEFKEFIENFEFKVPSA [r9_715_TrROS] | 1.75 ± 0.079 kcal/mol | 2.97 ± 0.086 kcal/mol | 2.52 ± 0.23 kcal/mol
14 | SISITLPDGTKTVSQSFNPEGNTITYTMEAPGKKITITLTEKVVGGSKEISVKITTDPVPLTPEEVAALKAS [r1_154_JUSTAS] | 2.03 ± 0.13 kcal/mol | 1.94 ± 0.085 kcal/mol | 1.86 ± 0.12 kcal/mol
15 | SITIKIPLKPGYPYALRIHFYNPNGKPREMDMNVTRKPDGEVEIPIKIPDKDIPPGQDIRIQSIEIYPMKSA [r9_359_TrROS] | 1.5 ± 0.038 kcal/mol | 2.59 ± 0.1 kcal/mol | 1.99 ± 0.26 kcal/mol
16 | SITITRDPDYYTLRIPPGMDSVEEVQDFLKELGFKLPPGVKDIQVEEVDKENNQVTITIQLDDPEAIQDLSA [r9_820_TrROS] | 0.601 ± 0.085 kcal/mol | 0.836 ± 0.28 kcal/mol | 0.798 ± 0.2 kcal/mol
17 | SIYIKIPIDEIKPEWNKNGMITLEIKYPNGKTIKFEFPPGFQIDNIEVIKPGWIMFEFEIVPPADPEDAKSA [r9_501_TrROS] | 1.76 ± 0.12 kcal/mol | 3.06 ± 0.082 kcal/mol | 2.2 ± 0.16 kcal/mol
18 | SKAEIVEIKIEKVEKDGKKYYKVKIKVKTKDGKIKEIEITFPEGMSEEEIKKKIEELAKELGIEKVEIKPSA [r9_1203_TrROS_Hall] | 3.76 ± 0.44 kcal/mol | 4.7 ± 0.24 kcal/mol | 4.53 ± 0.67 kcal/mol
